Laboratory results: paper PMC7367873, “Dissecting the sequence determinants for dephosphorylation by the catalytic subunits of phosphatases PP1 and PP2A” (Nature Communications, 2020)

Columns and labels:
GFP-14-3-3β = GFP-14-3-3β co-IP with LC-MS/MS, untreated GFP-14-3-3β versus GFP control (14-3-3 interactome); type: binding, human
[1] = system: GFP-14-3-3β and its binding proteins; test: GFP-14-3-3β co-IP with LC-MS/MS label-free quantification, untreated versus PP1c-treated; set-up: species or system human
[2] = pairwise comparison untreated vs GFP
[3] = pairwise comparison PP1 vs untreated
[4] = untreated vs GFP, LFQ intensities, 3 replicates each
[5] = PP1 vs untreated, LFQ intensities, 3 replicates each

B1: MSN (protein, UniProt P26038 2-577, looked up)
Moesin: PKTISVRVTTMDAELEFAIQPNTTGKQLFDQVVKTIGLREVWFFGLQYQDTKGFSTWLKLNKKVTAQDVRKESPLLFKFRAKFYPEDVSEELIQDITQRLFFLQVKEGILNDDIYCPPETAVLLASYAVQSKYGDFNKEVHKSGYLAGDKLLPQRVLEQHKLNKDQWEERIQVWHEEHRGMLREDAVLEYLKIAQDLEMYGVNYFSIKNKKGSELWLGVDALGLNIYEQNDRLTPKIGFPWSEIRNISFNDKKFVIKPIDKKAPDFVFYAPRLRINKRILALCMGNHELYMRRRKPDTIEVQQMKAQAREEKHQKQMERAMLENEKKKREMAEKEKEKIEREKEELMERLKQIEEQTKKAQQELEEQTRRALELEQERKRAQSEAEKLAKERQEAEEAKEALLQASRDQKKTQEQLALEMAELTARISQLEMARQKKESEAVEWQQKAQMVQEDLEKTRAELKTAMSTPHVAEPAENEQDEQDENGAEASADLRADAMAKDRSEEERTTEAEKNERVQKHLKALTSELANARDESKKTANDMIHAENMRLGRDKYKTLRQIRQGNTKQRIDEFESM
Difference (log2), untreated vs GFP (GFP-14-3-3β; [2]): 0.7577 log2
Difference (log2), PP1 vs untreated [1, 3]: 0.2864 log2

B2: FLOT1 (protein, UniProt O75955 1-427, looked up)
Flotillin-1: MFFTCGPNEAMVVSGFCRSPPVMVAGGRVFVLPCIQQIQRISLNTLTLNVKSEKVYTRHGVPISVTGIAQVKIQGQNKEMLAAACQMFLGKTEAEIAHIALETLEGHQRAIMAHMTVEEIYKDRQKFSEQVFKVASSDLVNMGISVVSYTLKDIHDDQDYLHSLGKARTAQVQKDARIGEAEAKRDAGIREAKAKQEKVSAQYLSEIEMAKAQRDYELKKAAYDIEVNTRRAQADLAYQLQVAKTKQQIEEQRVQVQVVERAQQVAVQEQEIARREKELEARVRKPAEAERYKLERLAEAEKSQLIMQAEAEAASVRMRGEAEAFAIGARARAEAEQMAKKAEAFQLYQEAAQLDMLLEKLPQVAEEISGPLTSANKITLVSSGSGTMGAAKVTGEVLDILTRLPESVERLTGVSISQVNHKPLRTA
Difference (log2), untreated vs GFP (GFP-14-3-3β; [4]): -0.5076 log2
Difference (log2), PP1 vs untreated [1, 5]: 0.376 log2

B3: BSG (protein, UniProt P35613 22-385, looked up)
Basigin: AAGFVQAPLSQQRWVGGSVELHCEAVGSPVPEIQWWFEGQGPNDTCSQLWDGARLDRVHIHATYHQHAASTISIDTLVEEDTGTYECRASNDPDRNHLTRAPRVKWVRAQAVVLVLEPGTVFTTVEDLGSKILLTCSLNDSATEVTGHRWLKGGVVLKEDALPGQKTEFKVDSDDQWGEYSCVFLPEPMGTANIQLHGPPRVKAVKSSEHINEGETAMLVCKSESVPPVTDWAWYKITDSEDKALMNGSESRFFVSSSQGRSELHIENLNMEADPGQYRCNGTSSKGSDQAIITLRVRSHLAALWPFLGIVAEVLVLVTIIFIYEKRRKPEDVLDDDDAGSAPLKSSGQHQNDKGKNVRQRNSS
Difference (log2), untreated vs GFP (GFP-14-3-3β; [4]): 0.07198 log2
Difference (log2), PP1 vs untreated [1, 5]: 0.3522 log2

B4: ERC1 (protein, UniProt Q8IUD2 1-1116, looked up)
ELKS/Rab6-interacting/CAST …: MYGSARSVGKVEPSSQSPGRSPRLPRSPRLGHRRTNSTGGSSGSSVGGGSGKTLSMENIQSLNAAYATSGPMYLSDHENVGSETPKSTMTLGRSGGRLPYGVRMTAMGSSPNIASSGVASDTIAFGEHHLPPVSMASTVPHSLRQARDNTIMDLQTQLKEVLRENDLLRKDVEVKESKLSSSMNSIKTFWSPELKKERALRKDEASKITIWKEQYRVVQEENQHMQMTIQALQDELRIQRDLNQLFQQDSSSRTGEPCVAELTEENFQRLHAEHERQAKELFLLRKTLEEMELRIETQKQTLNARDESIKKLLEMLQSKGLSAKATEEDHERTRRLAEAEMHVHHLESLLEQKEKENSMLREEMHRRFENAPDSAKTKALQTVIEMKDSKISSMERGLRDLEEEIQMLKSNGALSTEEREEEMKQMEVYRSHSKFMKNKVEQLKEELSSKEAQWEELKKKAAGLQAEIGQVKQELSRKDTELLALQTKLETLTNQFSDSKQHIEVLKESLTAKEQRAAILQTEVDALRLRLEEKETMLNKKTKQIQDMAEEKGTQAGEIHDLKDMLDVKERKVNVLQKKIENLQEQLRDKEKQMSSLKERVKSLQADTTNTDTALTTLEEALAEKERTIERLKEQRDRDEREKQEEIDNYKKDLKDLKEKVSLLQGDLSEKEASLLDLKEHASSLASSGLKKDSRLKTLEIALEQKKEECLKMESQLKKAHEAALEARASPEMSDRIQHLEREITRYKDESSKAQAEVDRLLEILKEVENEKNDKDKKIAELERQVKDQNKKVANLKHKEQVEKKKSAQMLEEARRREDNLNDSSQQLQDSLRKKDDRIEELEEALRESVQITAEREMVLAQEESARTNAEKQVEELLMAMEKVKQELESMKAKLSSTQQSLAEKETHLTNLRAERRKHLEEVLEMKQEALLAAISEKDANIALLELSSSKKKTQEEVAALKREKDRLVQQLKQQTQNRMKLMADNYEDDHFKSSHSNQTNHKPSPDQIIQPLLELDQNRSKLKLYIGHLTTLCHDRDPLILRGLTPPASYNLDDDQAAWENELQKMTRGQLQDELEKGERDNAELQEFANAILQQIADHCPDILEQVVNALEESS
Difference (log2), untreated vs GFP (GFP-14-3-3β; [4]): 2.543 log2
Difference (log2), PP1 vs untreated [1, 5]: 0.3326 log2

B5: HLTF (protein, UniProt Q14527 1-1009, looked up)
Helicase-like transcription …: MSWMFKRDPVWKYLQTVQYGVHGNFPRLSYPTFFPRFEFQDVIPPDDFLTSDEEVDSVLFGSLRGHVVGLRYYTGVVNNNEMVALQRDPNNPYDKNAIKVNNVNGNQVGHLKKELAGALAYIMDNKLAQIEGVVPFGANNAFTMPLHMTFWGKEENRKAVSDQLKKHGFKLGPAPKTLGFNLESGWGSGRAGPSYSMPVHAAVQMTTEQLKTEFDKLFEDLKEDDKTHEMEPAEAIETPLLPHQKQALAWMVSRENSKELPPFWEQRNDLYYNTITNFSEKDRPENVHGGILADDMGLGKTLTAIAVILTNFHDGRPLPIERVKKNLLKKEYNVNDDSMKLGGNNTSEKADGLSKDASRCSEQPSISDIKEKSKFRMSELSSSRPKRRKTAVQYIESSDSEEIETSELPQKMKGKLKNVQSETKGRAKAGSSKVIEDVAFACALTSSVPTTKKKMLKKGACAVEGSKKTDVEERPRTTLIICPLSVLSNWIDQFGQHIKSDVHLNFYVYYGPDRIREPALLSKQDIVLTTYNILTHDYGTKGDSPLHSIRWLRVILDEGHAIRNPNAQQTKAVLDLESERRWVLTGTPIQNSLKDLWSLLSFLKLKPFIDREWWHRTIQRPVTMGDEGGLRRLQSLIKNITLRRTKTSKIKGKPVLELPERKVFIQHITLSDEERKIYQSVKNEGRATIGRYFNEGTVLAHYADVLGLLLRLRQICCHTYLLTNAVSSNGPSGNDTPEELRKKLIRKMKLILSSGSDEECAICLDSLTVPVITHCAHVFCKPCICQVIQNEQPHAKCPLCRNDIHEDNLLECPPEELARDSEKKSDMEWTSSSKINALMHALTDLRKKNPNIKSLVVSQFTTFLSLIEIPLKASGFVFTRLDGSMAQKKRVESIQCFQNTEAGSPTIMLLSLKAGGVGLNLSAASRVFLMDPAWNPAAEDQCFDRCHRLGQKQEVIITKFIVKDSVEENMLKIQNKKRELAAGAFGTKKPNADEMKQAKINEIRTLIDL
Difference (log2), untreated vs GFP (GFP-14-3-3β; [4]): 1.079 log2
Difference (log2), PP1 vs untreated [1, 5]: 0.3278 log2

B6: SRP14 (protein, UniProt P37108 2-136, looked up)
Signal recognition particle …: VLLESEQFLTELTRLFQKCRTSGSVYITLKKYDGRTKPIPKKGTVEGFEPADNKCLLRATDGKKKISTVVSSKEVNKFQMAYSNLLRANMDGLKKRDKKNKTKKTKAAAAAAAAAPAAAATAPTTAATTAATAAQ
Difference (log2), untreated vs GFP (GFP-14-3-3β; [4]): 1.473 log2
Difference (log2), PP1 vs untreated [1, 5]: 0.3437 log2

B7: UPF1 (protein, UniProt Q92900 1-1129, looked up)
Regulator of nonsense …: MSVEAYGPSSQTLTFLDTEEAELLGADTQGSEFEFTDFTLPSQTQTPPGGPGGPGGGGAGGPGGAGAGAAAGQLDAQVGPEGILQNGAVDDSVAKTSQLLAELNFEEDEEDTYYTKDLPIHACSYCGIHDPACVVYCNTSKKWFCNGRGNTSGSHIVNHLVRAKCKEVTLHKDGPLGETVLECYNCGCRNVFLLGFIPAKADSVVVLLCRQPCASQSSLKDINWDSSQWQPLIQDRCFLSWLVKIPSEQEQLRARQITAQQINKLEELWKENPSATLEDLEKPGVDEEPQHVLLRYEDAYQYQNIFGPLVKLEADYDKKLKESQTQDNITVRWDLGLNKKRIAYFTLPKTDSGNEDLVIIWLRDMRLMQGDEICLRYKGDLAPLWKGIGHVIKVPDNYGDEIAIELRSSVGAPVEVTHNFQVDFVWKSTSFDRMQSALKTFAVDETSVSGYIYHKLLGHEVEDVIIKCQLPKRFTAQGLPDLNHSQVYAVKTVLQRPLSLIQGPPGTGKTVTSATIVYHLARQGNGPVLVCAPSNIAVDQLTEKIHQTGLKVVRLCAKSREAIDSPVSFLALHNQIRNMDSMPELQKLQQLKDETGELSSADEKRYRALKRTAERELLMNADVICCTCVGAGDPRLAKMQFRSILIDESTQATEPECMVPVVLGAKQLILVGDHCQLGPVVMCKKAAKAGLSQSLFERLVVLGIRPIRLQVQYRMHPALSAFPSNIFYEGSLQNGVTAADRVKKGFDFQWPQPDKPMFFYVTQGQEEIASSGTSYLNRTEAANVEKITTKLLKAGAKPDQIGIITPYEGQRSYLVQYMQFSGSLHTKLYQEVEIASVDAFQGREKDFIILSCVRANEHQGIGFLNDPRRLNVALTRARYGVIIVGNPKALSKQPLWNHLLNYYKEQKVLVEGPLNNLRESLMQFSKPRKLVNTINPGARFMTTAMYDAREAIIPGSVYDRSSQGRPSSMYFQTHDQIGMISAGPSHVAAMNIPIPFNLVMPPMPPPGYFGQANGPAAGRGTPKGKTGRGGRQKNRFGLPGPSQTNLPNSQASQDVASQPFSQGALTQGYISMSQPSQMSQPGLSQPELSQDSYLGDEFKSQIDVALSQDSTYQGERAYQHGGVTGLSQY
Difference (log2), untreated vs GFP (GFP-14-3-3β; [2]): 0.2927 log2
Difference (log2), PP1 vs untreated [1, 3]: 0.3073 log2

B8: WBP11 (protein, UniProt Q9Y2W2 1-641, looked up)
WW domain-binding protein 11: MGRRSTSSTKSGKFMNPTDQARKEARKRELKKNKKQRMMVRAAVLKMKDPKQIIRDMEKLDEMEFNPVQQPQLNEKVLKDKRKKLRETFERILRLYEKENPDIYKELRKLEVEYEQKRAQLSQYFDAVKNAQHVEVESIPLPDMPHAPSNILIQDIPLPGAQPPSILKKTSAYGPPTRAVSILPLLGHGVPRLPPGRKPPGPPPGPPPPQVVQMYGRKVGFALDLPPRRRDEDMLYSPELAQRGHDDDVSSTSEDDGYPEDMDQDKHDDSTDDSDTDKSDGESDGDEFVHRDNGERDNNEEKKSGLSVRFADMPGKSRKKKKNMKELTPLQAMMLRMAGQEIPEEGREVEEFSEDDDEDDSDDSEAEKQSQKQHKEESHSDGTSTASSQQQAPPQSVPPSQIQAPPMPGPPPLGPPPAPPLRPPGPPTGLPPGPPPGAPPFLRPPGMPGLRGPLPRLLPPGPPPGRPPGPPPGPPPGLPPGPPPRGPPPRLPPPAPPGIPPPRPGMMRPPLVPPLGPAPPGLFPPAPLPNPGVLSAPPNLIQRPKADDTSAATIEKKATATISAKPQITNPKAEITRFVPTALRVRRENKGATAAPQRKSEDDSAVPLAKAAPKSGPSVPVSVQTKDDVYEAFMKEMEGLL
Difference (log2), untreated vs GFP (GFP-14-3-3β; [4]): 1.895 log2
Difference (log2), PP1 vs untreated [1, 5]: 0.3509 log2
